# Assay results as given in patent publication US6610289B2, “Mutated herpes simplex virus type 1 thymidine kinases and uses thereof” (The Board of Trustees of the University of Arkansas, priority 1998, dated 2003).
# Residue numbers refer to the chain shown, from its start.
# Key:
# [1] = molecular target: T1, HSV-1 TK (Human herpesvirus 1, UniProt P0DTH5, Q125N); details: previous study (17); cited from earlier work
# T1 construct: glutathione-S-transferase (GST)
# T1 sequence (P0DTH5 1-376 Q125N): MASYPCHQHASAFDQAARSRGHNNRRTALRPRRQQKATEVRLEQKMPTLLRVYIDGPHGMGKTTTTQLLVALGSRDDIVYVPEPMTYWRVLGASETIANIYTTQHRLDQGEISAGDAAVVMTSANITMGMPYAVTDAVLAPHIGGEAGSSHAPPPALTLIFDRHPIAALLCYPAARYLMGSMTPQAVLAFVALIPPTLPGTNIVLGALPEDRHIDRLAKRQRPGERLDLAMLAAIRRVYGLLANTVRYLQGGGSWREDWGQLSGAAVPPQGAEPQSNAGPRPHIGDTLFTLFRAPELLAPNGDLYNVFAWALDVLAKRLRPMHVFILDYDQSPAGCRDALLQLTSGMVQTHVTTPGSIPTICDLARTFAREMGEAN
# [2] = molecular target: T2, HSV-1 TK (Human herpesvirus 1, UniProt P0DTH5); details: reference (29); cited from earlier work
# T2 sequence (P0DTH5 1-376): T1 sequence (P0DTH5 1-376 Q125N) with N125Q
# [3] = molecular target: T2, HSV-1 TK; assay: Photoaffinity labeling with [^32P]5-azido-dUMP; type: binding, herpes simplex virus type 1; design: made in house; host or cells: E. coli BL21SY211 (pET-9a derived pET-TK1); details: FIG. 1, autoradiograph
# Protocol: The TMP photoaffinity analog, [^32P]5-N3dUMP, was synthesized enzymatically using HSV-1 TK, 5-azido-deoxyuridine and [g-^32P]ATP as previously described (10, 12). For photolabeling studies, 10 μg of the DE-52/heparin agarose purified HSV-TKs were incubated with 10 mM [^32P]5-N3dUMP for 10 seconds. The sample was then irradiated for 90 seconds with a hand-held UV lamp (254 nm UVP-11, Ultraviolet Products, Inc.) at a distance of 3 cm. Reactions were terminated by addition of an equal volume of 10% TCA, incubated on ice for 10 minutes, and pelleted by centrifugation at 13,000×g for 5 minutes. The protein was resuspended in a solubilization mixture (23) and separated on 10% SDS-polyacrylamide gels. Dried gels were exposed to film for 2 days.
# The thymidine and TMP photoaffinity analog, [^32p]5-azido-dUMP, has proven useful as an active-site cross-linking reagent for studying HSV-1 TK (10, 12). This analog was used for photocrosslinking of the four HSV-1 TKs.
# [4] = system: HCT-116 cells; assay: Clonal dilution assay for bystander effect cell killing; type: cell-based, human; details: 25 μM GCV 24 hours
# Protocol: Each of the three HSV-1 TK expressing cell lines were plated with parental HCT-116 cells (total 2×10^5/well) in the following proportions: (parental: HSV-1TK cells) 100%:0; 95%:5%; 90%:10%; 75%:25%; 50%:50% and 0:100%. […] After 7 days, surviving cell colonies were fixed in 100% methanol, stained with 0.1% methylene blue and counted.
# For determination of GCV sensitivity, parental HCT-116 and each HSV-1 TK expressing cells were seeded in 24 well plates (2×10^5/well) in 1 ml of media. The next day, 0, 0.1, 1 or 10 μM GCV was added to each cell line in triplicate. After 24 hours, for each well the media was removed, cells were rinsed twice in fresh media, trypsinized, then media was added to 1 ml per well. Each well of cells was then sequentially diluted from 1:10 to 1:10,000 in 1 ml of fresh media on a separate 24 well plate. After 7 days, surviving cell colonies were fixed in 100% methanol, stained with 0.1% methylene blue and counted. […]
# It has been previously established that HCT-116 cells expressing HSV-1 TK are sensitive to bystander effect cell death via a connexin-43 gap junction mediated transfer of GCV metabolites (24). […] In these same cell lines, a greater than 4-log reduction in cell colony numbers was detected with 25% and 50% proportions of HSV-1 TK-expressing cells. […]
# [5] = molecular target: T3, HSV-1 TK (Human herpesvirus 1, UniProt P0DTH5, Q125E); details: previous study (17); cited from earlier work
# T3 construct: glutathione-S-transferase (GST)
# T3 sequence (P0DTH5 1-376 Q125E): T1 sequence (P0DTH5 1-376 Q125N) with N125E
substance,measurement,setting,value
Asn-125,Increase in the Km of ACV,[1],3 fold
same,Increase in the Km of thymidine,[1],50 fold
"Gln-125 (WT): wild-type herpes simplex virus type 1 thymidine kinase with glutamine at position 125, parent enzyme [reference compound]",Km for thymidine lower than that of GCV,[2],70-100 times
same,Photoincorporation of [^32P]5-azido-dUMP,[3],photoincorporated efficiently
Glu-125,Bystander effect: decrease in cell colony numbers,[4]; 10% proportions,1 log
same,Bystander effect: decrease in cell colony numbers,[4]; 50% proportions,~3 log
same,Thymidine and ACV phosphorylation activities,[5],no detectable activities
